Test results from PMC9090809 (2022).

B1: recombinant LC3C (natural protein)
chain: MPPPQKIPSVRPFKQRKSLAIRQEEVAGIRAKFPNKIPVVVERYPRETFLPPLDKTKFLVPQELTMTQFLSIIRSRMVLRATEAFYLLVNNKSLVSMSATMAEIYRDYKDEDGFVYMTYASQETFG
B2: recombinant GABARAP (natural protein)
chain: MKFVYKEEHPFEKRRSEGEKIRKKYPDRVPVIVEKAPKARIGDLDKKKYLVPSDLTVGQFYFLIRKRIHLRAEDALFFFVNNVIPPTSATMGQLYQEHHEEDFFLYIAYSDESVYGL

Biological target: LC3-trap Wx8 (covalently labelled with an N-hydroxysuccinimide (RED-NHS) dye in the MST)
Assay: MST

Row | Binder | Kd [nM]
1 | B1 | 3.4
2 | B2 | 24.8
